According to the nanobody polyreactivity screen of Harvey et al. (2022):

Test: yeast display, Sf9 membrane polyspecificity reagent, FACS + sequencing; frameworks hold sequencing errors
How it was run: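 Nanobodies came from a synthetic yeast display library in Saccharomyces cerevisiae BJ5465, induced with galactose for 36–48 hours and stained for 1 hour at 4 °C with 10% biotinylated, detergent-solubilized Sf9 membrane reagent. Cells were enriched on streptavidin microbeads and then FACS-sorted, with low and high (top ~1%) gates set on anti-HA fluorescence for expression and streptavidin fluorescence for reagent binding. Each polyreactivity label reflects the gate a clone came from. Genes were amplified by colony PCR, sequenced by MiSeq 2 × 250 and filtered by CDR length.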

Row | Sequence | polyreactivity (PSR sort gate)
1 | QVQLVESGGGLVQAGGSLRLSCAASAGTFNHYAMGWSRQEPGKERELVASITNGASTYYADSVKGRFTISRDNAKNTVYLQMNILKPEDTAVYYCAKRGRVGKYRYEYWGQGTLVTVSS | low polyreactivity
2 | QVQLVESGGGLVQAGGSLRLSCADSGFIFVPYAMGWYRQAPGKERELVATITGRGDSTYYADSVKWRFTISRDNALNTVYLQMNSLKTEDTSLFYCAVDPIRLWAYDYWGQGTQVTVSS | low polyreactivity
3 | QVQLVESGGGLVQAGGSLRLSCAASGSLFYVYAMGWYRQAPGKERELVAAITNYADSVKGRFTISRDNAKNTVYLQMNSLKPEDTAVYYCAADWWRVEMDYWGQGSQVTVSS | low polyreactivity
4 | QVQLVESGGGLVQAGGSLRLSCAASGSTFYIYAMGWYRQAPGKDRELVARISGSGGSTYYADSVKGRITISRDNAKNTVYLQMNSLKPEDTAVYYCAATKFNSFYWRYGYWGQGTQVTVSS | low polyreactivity
5 | QVQLVESGGGLVQAGGSLRLSCPASGRIVANAMGWYIQAPGKERELVAAISSVGSTNYADSVKGRFTISRDNAKNTVYLQMNSLKPEDTAVYYCAARGYRWYIAVDFWGQGTQVTVSS | low polyreactivity
6 | QVQLVESGGGLVPAGGSLRLSCAASGRIFRVYAMGWYRQAPGKERELVASISSGGSTNYADSVKGRFTISRDNAKNTVYLQMNSLKPEDTAVYYCAADYWYRLFWYYGAPLDYWGQGTQVTVSS | low polyreactivity
7 | QVQLVESGGGLVQAGGSLRLSCAASGSIFSFNAMGWYRQAPGKEREFVAAIFGVTRTYYADSVKGRFTISRDNAKNTVYLQMNSLKPEDTAVYYCAARPPYRRYSEPRFGYWGQGTQVTVSS | high polyreactivity
8 | QVQLVESGGGLVQAGGSLRLSCAASGFIFSHNAMGWYRQAPGKERELVAAISDGGGRTYYADSVKGRFTISRDNAKNTVYLQMNSLKPEDTEVYYCAVLWPYYERYYYWGQGTQVTVSS | high polyreactivity
9 | QVQLLESGGGLVQAGGSLRLSCAASGSTFGYYAMGWYRQAPGKERELVAAITRSGSSTYYADSVKGRFTISRDNAKNTVYLQMNSLKPEDTAVYYCAAEARYWIYEYDYWGQGTQVTGSS | high polyreactivity
10 | QVQLVESGGGLVQAGGSLRLSCAASGSIFPSYAMGWYRPAPGTERELVAAISVSGGRTSYADSVKGRFTISRDNAKNTVYLQMNSLKPEDTAVYYCAVRSWSGYGLYNYWAQGTQVTVSS | high polyreactivity
11 | QVQLVESGGGLVQAGGSLRLSCAASGSIFTTNAMGWYRQAPGKERELVSAISSRGGSTYYADSVKGRFTISRDNAKNTVYLQMNSLKPEDTAVYYCAARYRWPIPGTQYEYWGQGTQVTVSS | low polyreactivity
12 | QVQLVESGGGLVQAGGSLRLSCAASGRIFFVYAMGWYRQAPGKERELVAGIRSSGGSTYYADSVKGRFTISRDNAKKTVYLQMNSLKPEDTAVYYCAARRVGYPSPYSTYGMYYWGQGTQVTVSS | high polyreactivity
13 | QVQLVESGGGLVQAGGSLRLSCAASGFTFIPNAMGWYRQATGKERELVAAISTGGSTYYADSVKGRFTISRDNAKNTVSLQMNSLKPEDTAVYYCAAGILDLKLYFSSYDYWGQGTQVTVSS | low polyreactivity
14 | QVHLVESGGGLVQAGGSLRLSCAASGSTLSFYAMGWYRQAPGKERELVAAISYSTGTTYYADSVKGRFTISRDNAKNTVYLQMNSLKPEDSAVYYCAARWVWLHSRYDYWGQGTQVTVSS | high polyreactivity
15 | QVQLVESGGGLVQAGGSLRLSCAPSGFTFTYYAMGWYRQAPGQERELVAAITQSGGSTFYADSVQGRFTISRDNAKNTVYLQMNSLKPEDTAVYYCAADIDLYYDYDYWGQGTQVTVSS | low polyreactivity
16 | QVQLVESGGGLVQAGGSLRLSCAASGYIFGRNAMGWYRQAPGKEREFFAAISSSGSSTYYADSVKGRFTISRDKAKNTVYLQMNSLKPEDTAVYYCNADRLRSTHDYWGQGTQVTVSS | high polyreactivity
17 | QVQLVESGGGLVQAGGSLRLSCAASGITFYDYAMGWYRPAPGKERELVAAINSGDSTNYADSVKGRFTISRDNAKNTVYLQMNSLKPEDTAVYYCAADRYYYSWYTIWYRERIYYWGQGTQVTVSS | low polyreactivity
18 | QVQLVESGGGLVQAGGSLRLSCAASGSTFTPYAMGWYRQAPGKERELVAAISWSDDSTYYADSVKGRFTISRDNAKNTVYLQMNSLKPEDTAVYYCAASAYVDYGVYTYIMDYWGQGTQVTVSS | high polyreactivity
19 | QVQLVESGGGLVQAGGSLRLSCAASGSTFRRYAMGWYRQAPGKERELVAAITGSGGRTYYADSVKGRFTISRDNAKNTVYLQMNSLIPVDTAVYYCAKEGTFTKGVRLFDYWGQGTQVTVSS | high polyreactivity
20 | QVQLVESGGGLVQAGGSLRLSCAASGRIFQYYAMGWYRQATGKERELVAAISRTGSPYYADSVKGRVTISRDNAKNTVSLQMNSLTPADTAVYFCAADYWPQSNRWVYFRYGYWGLGTQVTVSS | high polyreactivity
21 | QVQLVESGGGLVQAGGSLRLSCAASGSTFSRYAMGWYRQAPGKERELVAAISWRGGRTYYADSVKGRFTISRDNAKNTVYLPMNSLKPEDTAVYYCNAVSSFTSPRYAYWGQGTQVTVSS | high polyreactivity
22 | QVQLVESGGGLVQAGGSLRLSCPATGSTFGSYAMAWYRPAPGKERELVADISSRGASTYYADSVKGRFTISRDNAKNTVYLQMNSLKPEDTAVYYCARDVYIWYGYGYFPEYEYWGQGTQVTVSS | low polyreactivity

Row | Sequence | polyreactivity (PSR sort gate)
23 | QVQLVESGGGLVQAGGSLRLSCAASGFTFIYYAMGWYRQAPGTERELVAAISTSGDSTYYADSVKGRFTISRDNAKNSVYLQMNSLKPEDTAVYYCNADWYPYLHEYDYWGQGTQVTVSS | low polyreactivity
24 | QVHLVESGGGLVQAGGSLRLSCAASGRTFHVYAMGWYRQAPGKEREFVAFISRRGGSTYYADSVKGRFTISRDNAKNTVYLQMNSLKPEDTAVYYCNAKYPSNYVVQDDYWGQGTQVTVSS | high polyreactivity
25 | QVQLVESGGGLVQAGGSLRLSCAASGSIFYGYAMAWYRQAPGKERELVAAITRSGGSTYYADSVKGRFTISRDNAKNTVYLQMNSLKPEDTAVYYCAAVSRSRRMDYWGQGTQVTVSS | high polyreactivity
26 | QVQLVESGGGLVQAGGSLRLSCAASGRIFYSYVMGWYRQAPGKERELVAAIRWGGGSTYYADSVKGRFTISPDNPKNTVYLQMNSLKPEDTAVYYCAAAYNWRKYDYWGQGTQVTVSS | high polyreactivity
27 | QVQLQESGGGLLQAGGSLRLSCAASGTISTDSYMGWYRQAPGKERKFVATIGYGGITYYADSVKGRSTISRDSAKNTVYLQMNSLKPEDTEVYYCAVNSYYPDHYWYWGRGTQVTVSS | high polyreactivity
28 | QVQLVESGGGLVQAGGSLRLSCAASGLTFSCYAMGWYRQAPGKERELVASINYSGANTYYADSVKGRFTISRDNAKNTVYLQMNSLKPEDTAVYYCNTRRRRYQNERVTYDYWGQGTQVTVSS | high polyreactivity
29 | QVQLVESGGGLVQAGGSLRLTCAASGITFKYKAMGWYRQAPGKEWELVAAISKGGGSTYYADSVKGRFTISRDNAKNTVYLQMNSLKPEVTAVYYCNAVPRRPVVSDTNPVGYDYWGEGTQVTVSS | low polyreactivity
30 | QDQLVESGGGLVQAGGSLRLSCAAYGRIFRANVMGWYRQAPGKERELVAAINWSGGSTYYADSVKGRFTISRDIAKNTVYLQMNSLKPEDTAVYYCAAAYKWFGEGRFYYWGQGTQVTVSS | high polyreactivity
31 | QVQLVESGGGLVQAGGSLRLSCAAAGITFKWNAMGWYRQAPGKERELVAVISSDGRTYYADSVKGRFTSSRDNAKNTVYLQMNSLKPEDTAVYYCARSHSYYPAGPYYYWGQGTQVTVSS | low polyreactivity
32 | QVQLVESGGGLVQAGGSLRLSCAASGFIFGYYAMGWYRQAPGKERELVAAINRSGSTYYADSVKGPFTISRDNAKNTVYLQMNSLKPEDTAVYYCKLRHYVGLSKGDYWGQGTQVTVSS | high polyreactivity
33 | QVQLVESGRGLVQAGGSLRLSCAASGLILGVNVMGWYRQAPGKERELVAAISGGGRTYYADSVKGRFTISRDNAKNTVYLQMNSLKPDDTAVYYCATVRRRLSLTYDYWGQVTQVTVSS | high polyreactivity
34 | QVQLVESGGGLVQAGGSLRLSCAASGSIFGVYVMGWYRQAPGKERELVAAITRGASTNYADSVKGRFTISRDNAKNTVYLQMNSLKPEDTAVYYCAARQVSVSGHQYGYWGQGTQVTVSS | low polyreactivity
35 | QVQLVESGGGLVQAGGSLRLSCPASGSTYLIYAMGWYRQAPGKERELVARITSTGSTYYADSVKRRFTISRDNAMNTVYLHMNSLKPEDTAVYYCNAAGYQYYWHYYWGQGTQVTVSS | low polyreactivity
36 | QVQLVESGGGLVQAGGSLRLSCPASGSIFRSYAMGWYRPAPGKERELVASISRRGGSSYYADSVKGRFTISRDNAKNTVYLQMNSLKPEDTAVYYCAAVRYNSRGSTTPSEMYYWGQGTQVTVSS | low polyreactivity
37 | QVQLVESGGGLVQAGGSLRLSCAASGNIFVNYAMGWYRQAPGKERELVASINYNGGNTYYADSVKGRFTISRDNAKNTVYLQMNSLKPEDTAVYYCAADLPESPESYYDTDDYWGQGTQVTVSS | low polyreactivity
38 | QVQLVESGGGLVQAGGSLRLSCAASGGMGWYRQAPGKERELVATISSVGSTNYADSVKGRFTISRDNAKNTVYLQMNSLKPEDTAVYYCNDTGVQYFLYAYWGQGTQVTVSS | low polyreactivity
39 | QVQLVESGGGLVQAGGSLRLSCAASGIIFLGYVMGWYRQAPGKERELVAAISSSGGRTYYADSVKGRFTISRDNAKNTVYLQMNSLKPEDTAVYYCARYSYRGTNVRYDYWGQGTQVTVSS | high polyreactivity
40 | QVQLVESGGGLVQAGGSLRLSCAASGRIFNPYVMGWYRPAPGKERELVAAISSGGRTYYADSVKGRFTISRDNAKNTVYLQMNSLKPEDTTVYYCAREQYRRYSGYGYWGQGTQVTVSS | high polyreactivity
41 | QVQLVESGGGLVQAGGSLRLSCAASGRIFVPYAMGWYRQAPGKERELVAGISWSGGSTYYADSVKGRFTISRDNAKNTVYLQMNNLKPEDTPVYYCAAAKRRRPFDYWGQGTQVTVSS | high polyreactivity
42 | QVQLVESGGGLVQAGGSLRLSCAASGSTFSAYTMGWYRQAPGKERELVARITNGGSTYYAESVKGRFTISRDNAKNTVYLQMNSLKPEDTAVYYCAAQLGWWGSGYWGQGTQVTLSS | high polyreactivity
43 | QVQLVESGGGLVQAGGRLRLSCAASGRTLSRYAMGWYRQAPGKERELVAAINNGGNTNYADSVKGRFTISRDNAKNTVYLQMNSLKPEDTAVYYCAVRWYPRYGSSYDYWGQGTQVTVSS | high polyreactivity
